Measurements as given in the supplement of paper PMC9112550, “Optimization of the antimicrobial peptide Bac7 by deep mutational scanning” (BMC Biology, 2022).

Tested on: Escherichia coli TOP10
Assay: shrunken log2 fold change of peptide-encoding DNA abundance (4.5 h post-induction vs induction); higher = less antimicrobial activity (less host growth inhibition)
Settings: time post-induction: 4.5 h; library: site-saturation at positions 5, 18, 19, 20
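Further: peptides expressed intracellularly from a pBAD plasmid library in pooled LB shake-flask culture, induced with 0.3% L-arabinose, DNA abundance read by NGS, three biological replicates, DESeq2 with apeglm shrinkage.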

| Sequence | shrunken log2 fold change |
| --- | --- |
| RRIRDRPPRLPRPRPRPRSEPRP | -0.0682 |
| RRIRARPPRLPRPRPRPKYLPRP | -0.299 |
| RRIRGRPPRLPRPRPRPMTWPRP | 0.17 |
| RRIRHRPPRLPRPRPRPNGAPRP | -0.18 |
| RRIRTRPPRLPRPRPRPNVAPRP | 0.174 |
| RRIRKRPPRLPRPRPRPEFLPRP | -0.00158 |
| RRIRPRPPRLPRPRPRPFAIPRP | -0.232 |
| RRIRRRPPRLPRPRPRPIKRPRP | 0.156 |
| RRIRSRPPRLPRPRPRPSFRPRP | -0.357 |
| RRIRYRPPRLPRPRPRPWNMPRP | -0.186 |
| RRIRNRPPRLPRPRPRPTWFPRP | 0.415 |
| RRIRLRPPRLPRPRPRPVFEPRP | 0.239 |
| RRIRLRPPRLPRPRPRPGIEPRP | -0.00975 |
| RRIRGRPPRLPRPRPRPQLVPRP | 0.0859 |
| RRIRARPPRLPRPRPRPVPPPRP | 1.05 |
| RRIRGRPPRLPRPRPRPVMIPRP | 0.157 |
| RRIRHRPPRLPRPRPRPKMIPRP | -0.254 |
| RRIRPRPPRLPRPRPRPQTMPRP | 0.235 |
| RRIRMRPPRLPRPRPRPRHIPRP | 0.0163 |
| RRIRSRPPRLPRPRPRPMNEPRP | -0.457 |
| RRIRHRPPRLPRPRPRPRAFPRP | -0.146 |
| RRIRPRPPRLPRPRPRPCEEPRP | 0.205 |
| RRIRPRPPRLPRPRPRPKDPPRP | 0.165 |

| Sequence | shrunken log2 fold change |
| --- | --- |
| RRIRTRPPRLPRPRPRPWLLPRP | -0.186 |
| RRIRNRPPRLPRPRPRPYVEPRP | -0.00677 |
| RRIRDRPPRLPRPRPRPYWCPRP | 0.0158 |
| RRIRCRPPRLPRPRPRPSFEPRP | -0.508 |
| RRIRIRPPRLPRPRPRPECLPRP | 0.0969 |
| RRIRLRPPRLPRPRPRPDCWPRP | 0.362 |
| RRIRPRPPRLPRPRPRPRDYPRP | 0.144 |
| RRIRYRPPRLPRPRPRPGRDPRP | -0.204 |
| RRIRGRPPRLPRPRPRPACWPRP | 1.08 |
| RRIRTRPPRLPRPRPRPLPKPRP | -0.0549 |
| RRIRERPPRLPRPRPRPCGMPRP | -0.398 |
| RRIRQRPPRLPRPRPRPCWKPRP | 0.111 |
| RRIRPRPPRLPRPRPRPIDWPRP | 0.272 |
| RRIRDRPPRLPRPRPRPVCRPRP | 0.251 |
| RRIRERPPRLPRPRPRPDALPRP | -0.0722 |
| RRIRCRPPRLPRPRPRPHFEPRP | -0.152 |
| RRIRERPPRLPRPRPRPEMEPRP | -0.0231 |
| RRIRLRPPRLPRPRPRPKQDPRP | -0.199 |
| RRIRHRPPRLPRPRPRPQANPRP | 0.0174 |
| RRIRTRPPRLPRPRPRPASWPRP | 0.733 |
| RRIRLRPPRLPRPRPRPRQNPRP | 0.108 |
| RRIRYRPPRLPRPRPRPFIQPRP | -0.126 |
| RRIRCRPPRLPRPRPRPCWEPRP | -0.0142 |

| Sequence | shrunken log2 fold change |
| --- | --- |
| RRIRGRPPRLPRPRPRPHANPRP | 0.361 |
| RRIRARPPRLPRPRPRPMCWPRP | 0.737 |
| RRIRGRPPRLPRPRPRPKCMPRP | 0.209 |
| RRIRNRPPRLPRPRPRPQVRPRP | 0.05 |
| RRIRFRPPRLPRPRPRPPTSPRP | 0.403 |
| RRIRSRPPRLPRPRPRPKSHPRP | -0.158 |
| RRIRDRPPRLPRPRPRPECLPRP | 0.0572 |
| RRIRERPPRLPRPRPRPFFDPRP | 0.0568 |
| RRIRERPPRLPRPRPRPTTTPRP | -0.0224 |
| RRIRDRPPRLPRPRPRPRPPPRP | 0.935 |
| RRIRDRPPRLPRPRPRPLVPPRP | 0.249 |
| RRIRIRPPRLPRPRPRPWSPPRP | -0.269 |
| RRIRRRPPRLPRPRPRPQCKPRP | -0.268 |
| RRIRSRPPRLPRPRPRPIERPRP | -0.23 |
| RRIRGRPPRLPRPRPRPLRRPRP | 1.54 |
| RRIRWRPPRLPRPRPRPPCQPRP | 0.0989 |
| RRIRIRPPRLPRPRPRPDWPPRP | 0.0262 |
| RRIRQRPPRLPRPRPRPASFPRP | 0.0572 |
| RRIRCRPPRLPRPRPRPLYRPRP | -1.14 |
| RRIRGRPPRLPRPRPRPGVIPRP | 0.375 |
| RRIRPRPPRLPRPRPRPWPSPRP | -0.125 |
| RRIRPRPPRLPRPRPRPMVHPRP | 0.137 |
| RRIRERPPRLPRPRPRPKMRPRP | 0.962 |

| Sequence | shrunken log2 fold change |
| --- | --- |
| RRIRCRPPRLPRPRPRPANHPRP | -0.282 |
| RRIRLRPPRLPRPRPRPTNNPRP | -0.524 |
| RRIRLRPPRLPRPRPRPHQQPRP | 0.0445 |
| RRIRCRPPRLPRPRPRPTDGPRP | -0.116 |
| RRIRFRPPRLPRPRPRPVISPRP | -0.674 |
| RRIRERPPRLPRPRPRPIAIPRP | -0.00127 |
| RRIRARPPRLPRPRPRPYAIPRP | 2.12 |
| RRIRNRPPRLPRPRPRPSRWPRP | 0.417 |
| RRIRIRPPRLPRPRPRPECDPRP | 0.0126 |
| RRIRNRPPRLPRPRPRPQIAPRP | -0.155 |
| RRIRMRPPRLPRPRPRPLINPRP | -0.231 |
| RRIRLRPPRLPRPRPRPCVHPRP | -0.377 |
| RRIRPRPPRLPRPRPRPSTCPRP | -0.11 |
| RRIRLRPPRLPRPRPRPGICPRP | 0.126 |
| RRIRARPPRLPRPRPRPSALPRP | 0.591 |
| RRIRQRPPRLPRPRPRPCLLPRP | -2.33 |
| RRIRWRPPRLPRPRPRPSYEPRP | 0.086 |
| RRIRYRPPRLPRPRPRPHAEPRP | -0.144 |
| RRIRYRPPRLPRPRPRPVLEPRP | -0.0835 |
| RRIRTRPPRLPRPRPRPREQPRP | 0.198 |
| RRIRIRPPRLPRPRPRPYHYPRP | -0.415 |
| RRIRQRPPRLPRPRPRPNTKPRP | -0.199 |
